Assay results from US7067277B1, “Chimeric G proteins and uses thereof” (H. Lundbeck A/S, priority 1999, dated 2006).

Tests used:
[1] = molecular target: h 5HT4 (Homo sapiens, UniProt Q13639); assay: Calcium mobilization (FLIPR, Fluo-3) in transfected COS-7 cells; type: cell-based; details: h 5HT4 + chimera in COS-7; agonist 5HT, max 100 μM
Protocol: (§1) COS-7 cells were cultured in 225 cm^2 flasks in Dulbecco's Modified Eagle Medium (DMEM) with supplements (10% bovine calf serum, 4 mM glutamine, 100 units/ml penicillin and 100 μg/ml streptomycin) at 37° C., 5% CO2. Stock plates of COS-7 cells were trypsinized and split 1:6 every 3–4 days.
(§2) GPCR and chimeric G protein cDNAs were transiently transfected into COS-7 cells in 150 cm^2 flasks by the DEAE-dextran method (Cullen, 1987), using a total of 20 μg of DNA/˜7×10^6 cells. For evaluating the function of a single chimeric G protein, the standard cDNA transfection ratio was 1:1 (10 μg GPCR cDNA and 10 μg chimeric G protein cDNA). For evaluating the function of a mixture of chimeric G proteins, the standard cDNA transfection ratio was 8:1:1 (16 μg GPCR cDNA, 2 μg Gαq/z cDNA, 2 μg Gαq/s cDNA).
(§3) Twenty four hours after transient transfection, COS-7 cells were seeded into 96-well black wall microtiter plates coated with poly-D-lysine for assay the following day. Just prior to assay, culture medium was aspirated and cells were dye-loaded with 4 μM Fluo-3/0.01% pluronic acid in assay buffer composed of Hank's Balanced Salt Solution (138 mM NaCl, 5 mM KCl, 1.3 mM CaCl2, 0.5 mM MgCl2, 0.4 mM MgSO4, 0.3 mM KH2PO4, 0.3 mM Na2HPO4, 5.6 mM glucose) plus 20 mM HEPES (pH 7.4), 0.1% BSA and 2.5 mM probenicid (100 μl/well) for 1 hour in 5% CO2 at 37° C. After excess dye was discarded, cells were washed in assay buffer and layered with a final volume equal to 100 μl/well. Basal fluorescence was monitored in a fluorometric imaging plate reader (FLIPR™, Molecular Devices) with an excitation wavelength of 488 nm and an emission range of 500 to 560 nm. Laser excitation energy was adjusted so that basal fluorescence readings were approximately 10,000 relative fluorescent units. Cells were stimulated with agonists diluted in assay buffer (50 μl), and relative fluorescent units were measured at defined intervals (exposure=0.4 sec) over a 3 min period at room temperature. Maximum change in fluorescence was calculated for each well. Concentration-response curves derived from the maximum change in fluorescence were analyzed by nonlinear regression (Hill equation).

[2] = molecular target: h 5HT6 (Homo sapiens, UniProt P50406); assay: as above; type: cell-based; details: h 5HT6 + chimera in COS-7; agonist 5HT, max 100 μM
Protocol: as §1, §2, §3

[3] = molecular target: h 5HT7 (Homo sapiens, UniProt P34969); assay: as above; type: cell-based; details: h 5HT7 + chimera in COS-7; agonist 5HT, max 100 μM
Protocol: as §1, §2, §3

[4] = molecular target: h D5 (Homo sapiens, UniProt P21918); assay: as above; type: cell-based; details: h D5 + chimera in COS-7; agonist DA, max 100 μM
Protocol: as §1, §2, §3

[5] = molecular target: h GLP-1 (Homo sapiens, UniProt P43220); assay: as above; type: cell-based; details: h GLP-1 + chimera in COS-7; agonist GLP-1, max 10 μM
Protocol: as §1, §2, §3

[6] = molecular target: h β2 adr (Homo sapiens, UniProt P07550); assay: as above; type: cell-based; details: h β2 adr + chimera in COS-7; agonist NE, max 100 μM
Protocol: as §1, §2, §3

[7] = molecular target: T1, h D1 (Homo sapiens, UniProt P21728); assay: as above; type: cell-based; details: h D1 + chimera in COS-7; agonist DA, max 100 μM
T1 construct: expressed in transfected cells; host or cells: COS-7
Protocol: as §1
For evaluating the function of a single chimeric G protein, the standard cDNA transfection ratio was 1:1 (10 μg GPCR cDNA and 10 μg chimeric G protein cDNA). For evaluating the function of a mixture of chimeric G proteins, the standard cDNA transfection ratio was 8:1:1 (16 μg GPCR cDNA, 2 μg Gαq/z cDNA, 2 μg Gαq/s cDNA).
as §3, with “Just prior to assay, culture medium was aspirated and cells were dye-loaded with 4 μM Fluo-3/0.01% pluronic acid in assay buffer composed of Hank's Balanced Salt Solution (138 mM NaCl, 5 mM KCl, 1.3 mM CaCl2, 0.5 mM MgCl2, 0.4 mM MgSO4, 0.3 mM KH2PO4, 0.3 mM Na2HPO4, 5.6 mM glucose) plus 20 mM HEPES (pH 7.4), 0.1% BSA and 2.5 mM probenicid (100 μl/well) for 1 hour in 5% CO2 at 37° C.” left out

[8] = test system: panel of 7 Gαs-coupling receptors; assay: Detection rate in COS-7 calcium mobilization over Gαs-coupling GPCR; type: cell-based, human; details: COS-7, stimulated with appropriate agonists
Protocol: as §1
as §2, with “For evaluating the function of a mixture of chimeric G proteins, the standard cDNA transfection ratio was 8:1:1 (16 μg GPCR cDNA, 2 μg Gαq/z cDNA, 2 μg Gαq/s cDNA).” left out
Twenty four hours after transient transfection, COS-7 cells were seeded into 96-well black wall microtiter plates coated with poly-D-lysine for assay the following day. […] Basal fluorescence was monitored in a fluorometric imaging plate reader (FLIPR™, Molecular Devices) with an excitation wavelength of 488 nm and an emission range of 500 to 560 nm. Laser excitation energy was adjusted so that basal fluorescence readings were approximately 10,000 relative fluorescent units. Cells were stimulated with agonists diluted in assay buffer (50 μl), and relative fluorescent units were measured at defined intervals (exposure=0.4 sec) over a 3 min period at room temperature. Maximum change in fluorescence was calculated for each well. […]

Sequence of h 5HT6 (P50406 whole entry): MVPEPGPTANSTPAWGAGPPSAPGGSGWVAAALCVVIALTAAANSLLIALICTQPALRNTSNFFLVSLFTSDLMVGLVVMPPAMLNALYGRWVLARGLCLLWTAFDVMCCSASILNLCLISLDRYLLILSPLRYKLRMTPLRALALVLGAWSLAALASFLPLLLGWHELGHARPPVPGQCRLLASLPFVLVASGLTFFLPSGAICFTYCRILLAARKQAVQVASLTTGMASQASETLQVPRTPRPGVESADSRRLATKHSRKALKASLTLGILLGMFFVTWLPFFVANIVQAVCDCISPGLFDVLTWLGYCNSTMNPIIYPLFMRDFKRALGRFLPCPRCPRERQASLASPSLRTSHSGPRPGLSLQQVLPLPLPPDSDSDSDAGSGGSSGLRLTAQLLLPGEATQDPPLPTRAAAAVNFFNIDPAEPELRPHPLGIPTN
Sequence of h 5HT7 (P34969 whole entry): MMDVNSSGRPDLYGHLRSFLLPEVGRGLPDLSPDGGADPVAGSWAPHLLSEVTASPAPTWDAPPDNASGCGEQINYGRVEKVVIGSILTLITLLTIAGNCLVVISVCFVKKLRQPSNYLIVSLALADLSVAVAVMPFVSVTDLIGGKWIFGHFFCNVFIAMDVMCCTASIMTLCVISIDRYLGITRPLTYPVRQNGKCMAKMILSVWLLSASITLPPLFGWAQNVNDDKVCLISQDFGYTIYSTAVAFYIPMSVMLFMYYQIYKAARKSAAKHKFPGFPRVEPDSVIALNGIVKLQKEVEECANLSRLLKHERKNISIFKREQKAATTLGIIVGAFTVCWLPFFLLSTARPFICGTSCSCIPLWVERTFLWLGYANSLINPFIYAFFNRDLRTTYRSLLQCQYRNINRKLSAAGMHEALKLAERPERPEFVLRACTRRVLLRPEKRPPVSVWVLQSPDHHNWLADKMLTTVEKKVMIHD
Sequence of h D5 (P21918 whole entry): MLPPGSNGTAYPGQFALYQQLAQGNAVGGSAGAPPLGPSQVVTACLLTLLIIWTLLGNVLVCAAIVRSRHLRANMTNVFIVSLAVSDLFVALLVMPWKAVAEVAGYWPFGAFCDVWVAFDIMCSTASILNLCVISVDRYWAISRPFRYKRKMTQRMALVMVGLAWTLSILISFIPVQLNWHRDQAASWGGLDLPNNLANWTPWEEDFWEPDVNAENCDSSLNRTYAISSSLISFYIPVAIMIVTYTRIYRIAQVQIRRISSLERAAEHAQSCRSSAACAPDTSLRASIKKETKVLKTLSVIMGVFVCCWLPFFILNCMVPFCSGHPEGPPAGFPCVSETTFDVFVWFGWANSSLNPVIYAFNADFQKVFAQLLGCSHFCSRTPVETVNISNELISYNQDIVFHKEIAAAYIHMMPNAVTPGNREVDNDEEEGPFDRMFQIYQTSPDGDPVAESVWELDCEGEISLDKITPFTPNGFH
Sequence of h GLP-1 (P43220 24-463): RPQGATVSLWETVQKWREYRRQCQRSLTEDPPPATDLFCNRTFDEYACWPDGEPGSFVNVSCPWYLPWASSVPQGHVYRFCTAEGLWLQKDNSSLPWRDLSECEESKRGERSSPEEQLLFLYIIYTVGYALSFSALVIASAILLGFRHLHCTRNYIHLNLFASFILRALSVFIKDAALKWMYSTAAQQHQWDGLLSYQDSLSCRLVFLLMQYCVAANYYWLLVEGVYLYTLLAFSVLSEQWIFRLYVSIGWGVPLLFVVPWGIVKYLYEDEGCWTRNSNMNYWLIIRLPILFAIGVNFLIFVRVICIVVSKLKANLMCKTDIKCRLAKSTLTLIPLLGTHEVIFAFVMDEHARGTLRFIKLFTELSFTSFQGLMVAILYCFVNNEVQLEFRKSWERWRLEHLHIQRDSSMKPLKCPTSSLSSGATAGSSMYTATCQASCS
T1 sequence (P21728 whole entry): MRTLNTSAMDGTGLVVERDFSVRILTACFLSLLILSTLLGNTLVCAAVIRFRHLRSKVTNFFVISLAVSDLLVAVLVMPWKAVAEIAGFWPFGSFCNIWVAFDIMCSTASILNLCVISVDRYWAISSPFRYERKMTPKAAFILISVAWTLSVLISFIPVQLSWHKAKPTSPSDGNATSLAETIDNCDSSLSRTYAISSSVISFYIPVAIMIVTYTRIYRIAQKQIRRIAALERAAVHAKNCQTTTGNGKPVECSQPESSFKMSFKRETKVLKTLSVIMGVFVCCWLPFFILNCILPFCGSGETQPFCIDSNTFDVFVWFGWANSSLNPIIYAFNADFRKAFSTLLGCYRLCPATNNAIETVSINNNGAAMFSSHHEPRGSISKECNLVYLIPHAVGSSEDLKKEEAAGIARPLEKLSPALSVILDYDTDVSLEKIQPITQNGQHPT
Sequence of h 5HT4 (Q13639 whole entry): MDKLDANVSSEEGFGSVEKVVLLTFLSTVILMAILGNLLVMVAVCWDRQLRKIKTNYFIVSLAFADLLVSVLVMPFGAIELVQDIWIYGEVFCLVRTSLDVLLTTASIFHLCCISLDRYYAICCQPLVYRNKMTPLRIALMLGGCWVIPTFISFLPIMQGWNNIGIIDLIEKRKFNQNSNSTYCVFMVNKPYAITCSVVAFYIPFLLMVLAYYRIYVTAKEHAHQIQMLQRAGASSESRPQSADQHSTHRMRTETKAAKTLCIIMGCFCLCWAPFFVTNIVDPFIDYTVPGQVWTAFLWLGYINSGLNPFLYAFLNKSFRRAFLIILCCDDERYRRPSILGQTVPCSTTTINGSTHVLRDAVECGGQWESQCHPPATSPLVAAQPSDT

B1: cGαq/s9: C. elegans Gαq backbone with 9 C-terminal amino acids of Gαs (SEQ ID NO: 3) (protein)
chain: MACCLSEEAREQKRINQEIEKQLQRDKRNARRELKLLLLGTGESGKSTFIKQMRIIHGQGYSEEDKRAHIRLVYQNVFMAIQSMIRAMDTLDIKFGNESEELQEKAAVVREVDFESVTSFEEPYVSYIKELWEDSGIQECYDRRREYQLTDSAKYYLSDLRRLAVPDYLPTEQDILRVRVPTTGIIEYPFDLEQIIFRMVDVGGQRSERRKWIHCFENVTSIMFLVALSEYDQVLVECDNENRMEESKALFRTIITYPWFTNSSVILFLNKKDLLEEKILYSHLADYFPEYDGPPRDPIAAREFILKMFVDLNPDADKIIYSHFTCATDTENIRFVFAAVKDTILQMHLRQYELL
modifications: C. elegans
MAXIMAL SIGNAL (FLUORESCENCE UNITS) [1]: 1701 fluorescence units | MAXIMAL SIGNAL (FLUORESCENCE UNITS) [2]: 1639 fluorescence units | MAXIMAL SIGNAL (FLUORESCENCE UNITS) [3]: 387 fluorescence units | MAXIMAL SIGNAL (FLUORESCENCE UNITS) [4]: 1870 fluorescence units | MAXIMAL SIGNAL (FLUORESCENCE UNITS) [5]: 2461 fluorescence units | MAXIMAL SIGNAL (FLUORESCENCE UNITS) [6]: 3106 fluorescence units | MAXIMAL SIGNAL (FLUORESCENCE UNITS) [7]: 8692 fluorescence units | Gαs-coupling receptors generating positive responses (>500 fluorescence units) / receptors tested [8]: 6/7 | percent of Gαs-coupling receptors generating positive responses (>500 fluorescence units) [8]: 81%
